{
  "source": "paper doi:10.1101/2023.09.27.559698",
  "key": {"53BP1 GAR(3K)-Tudor": {"molecular_target": "53BP1 GAR(3K)-Tudor (Homo sapiens, UniProt Q12888 1288-1659, R1396K;R1398K;R1401K)", "sequence (Q12888 1288-1659 R1396K/R1398K/R1401K)": "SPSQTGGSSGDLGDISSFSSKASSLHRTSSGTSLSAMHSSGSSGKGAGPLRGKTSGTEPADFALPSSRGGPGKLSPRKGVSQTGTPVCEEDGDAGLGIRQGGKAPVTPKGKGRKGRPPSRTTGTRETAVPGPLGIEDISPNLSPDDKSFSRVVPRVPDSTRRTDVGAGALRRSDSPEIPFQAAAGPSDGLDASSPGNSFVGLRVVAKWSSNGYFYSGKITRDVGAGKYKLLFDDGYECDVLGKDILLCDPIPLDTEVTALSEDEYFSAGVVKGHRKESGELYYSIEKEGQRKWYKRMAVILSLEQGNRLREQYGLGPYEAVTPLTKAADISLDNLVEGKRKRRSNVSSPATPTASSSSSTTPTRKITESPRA", "assay": "SPR"}, "53BP1 GAR-Tudor": {"molecular_target": "53BP1 GAR-Tudor (Homo sapiens, UniProt Q12888 1288-1659)", "sequence (Q12888 1288-1659)": "as the sequence (Q12888 1288-1659 R1396K/R1398K/R1401K) above, with K109R, K111R, K114R counted along it", "assay": "SPR"}},
  "data": [
    {"binder": "GCUGCGGUGUGGAAGGAGUGGUCGGGUUGCGCAGCG (structured_RNA)", "note": "[SC1 RNA, biotinylated]", "values": [
      {"measurement": "binding result", "setting": "53BP1 GAR(3K)-Tudor", "result": "no binding"},
      {"measurement": "Kd", "setting": "53BP1 GAR-Tudor", "result": "~8", "unit": "nM"}
    ]}
  ]
}
